Molecular target: Flag-53BP1 (human, UniProt Q12888 1-1972)
Experiment: pull-down

Chain of Flag-53BP1 (Q12888 whole entry): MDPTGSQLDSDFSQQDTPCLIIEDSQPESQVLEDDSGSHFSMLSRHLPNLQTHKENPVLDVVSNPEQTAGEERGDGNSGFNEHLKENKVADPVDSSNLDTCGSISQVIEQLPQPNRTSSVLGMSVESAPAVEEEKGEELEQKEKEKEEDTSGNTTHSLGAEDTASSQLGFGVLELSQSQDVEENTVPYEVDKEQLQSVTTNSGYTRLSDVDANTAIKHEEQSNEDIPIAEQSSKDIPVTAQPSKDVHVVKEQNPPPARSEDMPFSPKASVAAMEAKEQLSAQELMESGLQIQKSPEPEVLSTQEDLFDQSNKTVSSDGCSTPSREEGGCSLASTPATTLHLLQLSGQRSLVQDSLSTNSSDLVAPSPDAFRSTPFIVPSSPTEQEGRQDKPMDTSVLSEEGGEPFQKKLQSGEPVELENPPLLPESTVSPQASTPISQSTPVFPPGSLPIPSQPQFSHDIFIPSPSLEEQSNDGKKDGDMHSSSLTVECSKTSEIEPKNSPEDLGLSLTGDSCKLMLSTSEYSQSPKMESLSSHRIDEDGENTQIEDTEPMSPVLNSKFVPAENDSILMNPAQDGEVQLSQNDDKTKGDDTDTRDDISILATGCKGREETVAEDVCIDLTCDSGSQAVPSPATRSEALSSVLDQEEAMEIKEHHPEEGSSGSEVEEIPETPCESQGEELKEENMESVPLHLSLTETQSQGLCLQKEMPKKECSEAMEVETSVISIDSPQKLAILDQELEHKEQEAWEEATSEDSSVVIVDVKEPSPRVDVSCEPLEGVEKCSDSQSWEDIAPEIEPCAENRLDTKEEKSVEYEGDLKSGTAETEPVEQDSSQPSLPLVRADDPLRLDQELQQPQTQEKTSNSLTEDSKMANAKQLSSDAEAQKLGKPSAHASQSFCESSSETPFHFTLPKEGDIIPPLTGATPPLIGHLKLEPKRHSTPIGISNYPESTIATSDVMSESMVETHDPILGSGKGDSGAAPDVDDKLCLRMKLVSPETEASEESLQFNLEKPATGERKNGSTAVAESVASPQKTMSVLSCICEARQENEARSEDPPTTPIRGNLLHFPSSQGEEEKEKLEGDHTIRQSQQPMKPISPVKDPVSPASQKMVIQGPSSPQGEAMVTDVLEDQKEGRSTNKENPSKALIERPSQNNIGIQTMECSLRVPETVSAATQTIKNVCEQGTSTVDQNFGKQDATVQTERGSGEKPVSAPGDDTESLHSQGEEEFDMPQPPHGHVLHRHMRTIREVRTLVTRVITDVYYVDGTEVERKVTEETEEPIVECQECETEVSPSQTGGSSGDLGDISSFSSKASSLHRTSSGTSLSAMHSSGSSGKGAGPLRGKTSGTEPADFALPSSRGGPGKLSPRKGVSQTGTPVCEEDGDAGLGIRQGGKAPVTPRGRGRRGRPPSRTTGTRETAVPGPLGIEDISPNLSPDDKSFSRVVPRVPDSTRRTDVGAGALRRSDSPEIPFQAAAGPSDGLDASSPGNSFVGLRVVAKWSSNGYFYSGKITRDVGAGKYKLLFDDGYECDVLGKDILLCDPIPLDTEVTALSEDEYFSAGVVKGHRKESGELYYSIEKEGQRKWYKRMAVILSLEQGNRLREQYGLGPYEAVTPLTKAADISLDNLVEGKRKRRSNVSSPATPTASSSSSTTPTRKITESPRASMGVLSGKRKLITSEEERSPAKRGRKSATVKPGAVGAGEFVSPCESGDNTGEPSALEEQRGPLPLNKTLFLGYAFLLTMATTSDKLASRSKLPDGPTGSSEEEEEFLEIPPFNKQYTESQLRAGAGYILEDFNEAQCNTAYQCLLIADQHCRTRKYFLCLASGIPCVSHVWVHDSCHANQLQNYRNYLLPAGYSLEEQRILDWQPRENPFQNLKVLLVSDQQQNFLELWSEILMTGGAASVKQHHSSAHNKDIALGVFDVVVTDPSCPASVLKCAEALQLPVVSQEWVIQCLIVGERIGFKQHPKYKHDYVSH

B1: GST-TPX2 (natural protein)
chain: MSQVKSSYSYDAPSDFINFSSLDDEGDTQNIDSWFEEKANLENKLLGKNGTGGLFQGKTPLRKANLQQAIVTPLKPVDNTYYKEAEKENLVEQSIPSNACSSLEVEAAISRKTPAQPQRRSLRLSAQKDLEQKEKHHVKMKAKRCATPVIIDEILPSKKMKVSNNKKKPEEEGSAHQDTAEKNASSPEKAKGRHTVPCMPPAKQKFLKSTEEQELEKSMKMQQEVVEMRKKNEEFKKLALAGIGQPVKKSVSQVTKSVDFHFRTDERIKQHPKNQEEYKEVNFTSELRKHPSSPARVTKGCTIVKPFNLSQGKKRTFDETVSTYVPLAQQVEDFHKRTPNRYHLRSKKDDINLLPSKSSVTKICRDPQTPVLQTKHRARAVTCKSTAELEAEELEKLQQYKFKARELDPRILEGGPILPKKPPVKPPTEPIGFDLEIEKRIQERESKKKTEDEHFEFHSRPCPTKILEDVVGVPEKKVLPITVPKSPAFALKNRIRMPTKEDEEEDEPVVIKAQPVPHYGVPFKPQIPEARTVEICPFSFDSRDKERQLQKEKKIKELQKGEVPKFKALPLPHFDTINLPEKKVKNVTQIEPFCLETDRRGALKAQTWKHQLEEELRQQKEAACFKARPNTVISQEPFVPKKEKKSVAEGLSGSLVQEPFQLATEKRAKERQELEKRMAEVEAQKAQQLEEARLQEEEQKKEELARLRRELVHKANPIRKYQGLEIKSSDQPLTVPVSPKFSTRFHC
- binding result: binds

From article PMC6363440 (The Journal of Cell Biology, 2019)
